“Also recorded” adds a separate entry of the source.
B1: TAT-Casp3MUT: catalytically inactive TAT-Casp3 with Met substituted for the active site Cys163 residue (protein)
chain: GRKKRRQRRRGYPYDVPDYACTERQANFLGKIWPGISLDNSYKMDYPEMGLCIIINNKNFHKSTGMTSRSGTDVDAANLRETFRNLKYEVRNKNDLTREEIVELMRDVSKEDHSKRSSFVCVLLSHGEEGIIFGTNGPVDLKKITNFFRGDRCRSLTGKPKLFIIQAMRGTELDCGIETSQVSQNYPIVQNLQGVDDDMACHKIPVEADFLYAYSTAPGYYSWRNSKDGSWFIQSLCAMLKQYADKLEFMHILTRVNRKVATEFESFSFDATFHAKKQIPCIVSMLTKELYFYH
modifications: left off: small tags and cut ends

Legend:
Jurkat T cells [1] = test: FACS and confocal analysis of FITC-labeled TAT fusion proteins added to Jurkat T cells; assay type: cell-based; details: FITC-labeled protein added to media of Jurkat T cells
Protocol: To test the ability of TAT-Casp3 proteins to transduce into cells, TAT-Casp3 proteins were conjugated to fluorescein (FITC), then added directly to the media of Jurkat T cells and analyzed by Flow Cytometry (FACS) (FIGS. 9B-C). Both TAT-Casp3WT and TAT-Casp3MUT proteins rancidly transduced into ˜100% of cells, achieving maximum intracellular concentration in less than 20 min. In addition, based on the narrow peak width before and after addition of FITC labeled proteins, individual cells within the population contain near identical intracellular concentrations of TAT-Casp3-FITC protein. […] Thus, TAT-Casp3 proteins readily transduce into 100% of all cells inca rapid and concentration-dependent fashion.
The generation and transduction of TAT fusion proteins shown in FIGS. 9A-E are explained in more detail as follows: FIG. 9A. Diagram depicting HIV cleavage site sequences and domains of TAT fusion proteins. FIGS. 9B-D. FACS kinetic analysis of fluorescein (FITC) labeled TAT-Casp3WT, TAT-Casp3MUT and TAT-HIV Pr proteins added to cells at 0, 20 and 30 min. FIG. 9E. FACS dose analysis of 3, 6, and 12 nM TAT-Casp3WT-FITC protein added to cells at I hr post-addition. Note rapid, concentration-dependent transduction of all FITC labeled protein into ˜100% of cells and near identical intracellular concentration within the population as measured by FACS peak width of control vs. transduced cells.
(§1) 1. […] See Lissy, N. A., et al. (supra). […] See Ezhevsky, S. A., et al. (supra). […] See Xiang, J., et al., (supra). […] See Xiang, J., et al., (supra). […] See Ezhevsky, S. A., et al. (supra).

Jurkat T cells [2] = test: Cytotoxicity of TAT-Casp3 on uninfected Jurkat T cells, viability by Trypan Blue exclusion; details: 100 nM TAT-Casp3 or 50 nM TAT-HIV Pr, uninfected Jurkat T cells, 16 hr
Protocol: In addition, the ability of TAT-Casp3 protein to induce apoptosis in cells co-transduced with TAT-HIV Pr protein was tested. Jurkat T cells were treated with 100 nM TAT-Casp3WT or TATCasp3MUT proteins alone or in combination with 50 nM TAT-HIV Pr protein and assayed for cell viability 16 hr post-treatment (FIG. 11A). […] See Salvensen, G. S., et al., Henkart, P. A., Cohen, G. M., Woo, M., et al., Enari, M. et al., Liu, X., et al. (supra).
FIG. 11A Cultures of Jurkat T cells were transduced with combinations of TAT-Casp3WT (WT), TAT-Casp3MUT (MUT) and TAT-HIV Protease (Pr) proteins for 16 hr and analyzed for cell viability. […] FIG. 11B Cultures of Jurkat T cells were co-transduced with TAT-Casp3WT (WT), TAT-Casp3MUT (MUT) proteins in combination with TAT-HIV Pr (Pr) protein and analyzed for kinetics of cell viability as indicated.
1. Cell culture-p16(−) Jurkat T cells (ATCC) were grown as described. See Lissy, N. A., et al. (supra). For in vivo substrate cleavage, 1×10^6 cells were transduced with 100 nM TAT-p16, TAT-A-p16, TAT-Casp3MUT and/or 50 nM TAT-HIV Pr proteins for 1, 5 or 8 hr as indicated and analyzed by anti-p16 (Santa Cruz) or anti-Casp3 (Pharmingen) immunoblot analysis. See Ezhevsky, S. A., et al. (supra). For cytotoxicity of TAT-Casp3 on uninfected cells, 1×10^6 cells were transduced with 100 nM TAT-Casp3WT, TAT-Casp3MUT and/or 50 nM TAT-HIV Pr proteins for 16 hr and assayed for viability by Trypan Blue exclusion and/or genomic DNA damage by TUNEL assay (Trevigen). Number of TUNEL positive cells reported as per high-powered microscopic field with four fields per experiment averaged. TAT-Casp3 activity was measured by incubation of 20 μg of whole cell lysate with 50 μM DEVD-AFC and fluorescent AFC formation measured on a FL500 microplate fluorescence reader (Bio-Tek) as described. See Xiang, J., et al., (supra). Cells were preincubated with 1 μg/ml Ritonavir (Abbott Labs) for 1 hr prior to transduction. For cytotoxicity of TAT-Casp3 on infected cells, Jurkat cultures were infected with 100 ng p24 Ag equivalent NLHX HIV-I strain for 7-14 days, assayed microscopically for cytopathic effects, then replated at 1×10^6/ml and transduced with 100 nM of TAT-Casp3WT or TAT-Casp3MUT proteins for 16 hr followed by exclusionary dye viability analysis. Infected cells were pretreated with 1 μg/ml Ritonavir for 24 hr prior to transduction with TAT-Casp3WT protein. See Xiang, J., et al., (supra). For Flow Cytometry (FACS) analysis, fluorescein (FITC) conjugated TAT fusion proteins were added to Jurkat T cell culture media and 1×10^4 cells were analyzed by FACS as described. See Ezhevsky, S. A., et al. (supra).

Jurkat T cells [3] = test: TUNEL assay for degraded genomic DNA in transduced Jurkat T cells; assay type: cell-based; details: for TUNEL positive cells, protein transduced alone: 100 nM TAT-Casp3 or 50 nM TAT-HIV Pr
Protocol: (§2) Additionally, transduced cultures were tested for degraded genomic DNA by TUNEL assay. See Coates, P. J., Molecular methods for the identification of apoptosis in tissues. J. Histotechnology 17: 261 (1994). […] Activation of TAT-Casp3 was also assayed by its ability to cleave an artificial Caspase-3 substrate. […] See Xiang, J., et al., Bax-induced cell death may not require interleukin 1B-converting enzyme-like proteases. Proc. Natl. Acad. Sci. USA 93: 14550 (1996).
(§3) The HIV Protease activates TAT-Casp3WT protein shown in FIGS. 12A-B are explained in more detail as follows. FIG. 12A. […] Abscissa: TUNEL positive cells per high-powered microscopic field; Ctrl, control addition of PBS to cultures; error bars represent SD. FIG. 12B. […] Ctrl, control PBS addition; ocFAS crosslinking, positive control.
as §1

[4] = system: caspase-3 activity (DEVD-AFC cleavage); test: Caspase-3 enzyme assay, cleavage of DEVD-AFC by whole cell lysate of transduced Jurkat T cells; assay type: cell-based; details: 6 hr
Protocol: as §2, §3, §1

HIV Protease = target: T1, HIV Protease (Human immunodeficiency virus type 1 group M subtype B, UniProt P04585); test: In vivo substrate cleavage by co-transduced TAT-HIV Pr in Jurkat T cells, immunoblot; assay type: cell-based; details: 100 nM substrate, 50 nM TAT-HIV Pr, Jurkat T cells, immunoblot
T1 construct: PCR cloning the HIV Protease gene from HXB2R HIV strain; 6xHis (from the pTAT vector) (N); made in house; the purified protein was added to Jurkat T cells
Protocol: To assay for in vivo cleavage, p 16(−) Jurkat T cells were transduced with 100 nM TAT-Ap16 or control TAT-p16 protein (no HIV cleavage site) alone or in combination with 50 nM TATHIV Pr fusion protein for 5 hr and analyzed by anti-p16 immunoblot for in vivo cleavage at the HIV A proteolytic cleavage site (FIG. 10A). […] Size analysis of the cleaved TAT-A-p 16 protein was consistent with retention of the residual HIV half site present on the N′ terminus of p 16 (FIG. 10A, see lane 4 vs. 5).
Further, the TAT-Casp3MUT protein was transduced in combination with TAT-HIV Pr protein into cells (FIG. 10B).
The in vivo processing in co-transduced cells shown in FIGS. 10A and 10B is explained in more detail as follows. FIG. 10A. Cultures of p16(−) Jurkat T cells were transduced with TAT-p 16 or TAT-A-p 16 substrate proteins in combination with TATHIV Pr proteins for 5 hr and subjected to anti-p 16 immunoblot analysis. […] WCE, HepG2 whole cell lysate containing wild type endogenous p16; A-p16, cleaved TAT-A-16 product retaining the HIV half site on p16. FIG. 10B. Cultures of Jurkat T cells were transduced with TATCasp3MUT protein (TAT-“D” site-p 17 domain-“A” site-p12 domain) alone or in combination with TAT-HIV Pr (Pr) protein as indicated and immunoblotted with anti-Caspase-3 antibodies specific for the p17 domain. TAT-D-p17-A, cleaved product of TAT-Casp3 containing the N′ terminal HIV A half site.
as §1

[5] = system: Jurkat T cells infected with the NLHX strain of HIV-I; test: Cytotoxicity of TAT-Casp3 on HIV infected Jurkat cultures, exclusionary dye viability analysis; assay type: cell-based; details: 100 nM, 16 hr, cultures approximately 50% HIV positive
Excerpt: To make this determination, Jurkat T cells were infected for 7-14 days with the NLHX strain of HIV-I and examined microscopically for HIV cytopathic effects. See Westervelt, P., et al., Identification of a determinant within the HIV-1 surface envelope glycoprotein critical for productive infection of cultured primary monocytes. Proc. Natl. Acad. Sci USA 88: 3097 (1991). At the start of each transduction experiment approximately 50% of the culture was HIV positive. HIV infected cultures were transduced for 16 hr with 100 nM TAT-Casp3WT or TATCasp3MUT protein and then assayed for cell viability (FIG. 13). […] In addition, we detected both the appearance of cells containing <2N DNA content and cells with condensed nuclei in TAT-Casp3 treated cells.
To determine if TAT-Casp3WT induced apoptosis was dependent on active HIV Protease in the infected cultures, HIV infected cultures were pretreated with 1 μg/ml Ritonavir prior to transduction with 100 nM TAT-Casp3WT protein (FIG. 5). […] In addition, the observed increased survival of Ritonavir treated cells is consistent with increased longevity of protease inhibitor treated HIV infected cells. See Coffin, J. M., et al. (supra).
The specific killing of HIV infected cells shown in FIG. 5 is explained in more detail as follows. Jurkat T cells were infected for 7-14 days with HIV strain NLHX, then transduced with TAT-Casp3WT (WT) or TAT-Casp3MUT (MUT) proteins for 16 hr and assayed for cell viability. […] Ctrl, control addition of PBS to cultures; abscissa, % viability of HIV positive cells in the population at start of transduction; error bars represent SD.
as §1

Molecule | cells transduced (Jurkat T cells [1]) [%] | cytotoxicity when transduced alone (Jurkat T cells [2]) | TUNEL positive cells, protein transduced alone (Jurkat T cells [3]) | caspase activity, protein transduced alone [4] | cleavage at the HIV cleavage site when co-transduced with TAT-HIV Pr (HIV Protease) | TUNEL positive cells, co-transduced with TAT-HIV Pr (Jurkat T cells [3]; 100 nM plus 50 nM TAT-HIV Pr) | effect on viability of HIV positive cells [5] | effect on viability of HIV positive cells ([5]; listed as TATCasp3MUT)
TAT-HIV Pr: transducible HIV Protease, gene from HXB2R HIV strain cloned into pTAT | 100 | absence | only background levels; also recorded: remained at background levels | only background levels |  |  |  | 
B1 | ~100 |  | only background levels; also recorded: remained at background levels | only background levels | specific cleavage | only background; also recorded: remained at background levels | no effect | negligible effects
